Measurements as given in the nanobody polyreactivity screen of Harvey et al. (2022).

assay: yeast display, Sf9 membrane polyspecificity reagent, FACS + sequencing; frameworks hold sequencing errors
In short: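 A nanobody's polyreactivity label depends on the gate it was sorted from. Yeast display cells were stained with 10% biotinylated, detergent-solubilized Sf9 membrane reagent for 1 hour at 4 °C, enriched on streptavidin microbeads and sorted by FACS. The low and high (top ~1%) gates were set on anti-HA fluorescence for expression and streptavidin fluorescence for reagent binding.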

Row | Sequence | polyreactivity (PSR sort gate)
1 | QVQHVESGGGLVQAGGSLRLSCAASGFIFARNAMGWYRQARGKERELVAVISTRGRTYYADSVKGRFTFSRDNAKNTVYLQMNSLKPEDTAVYYCNADKVIGYDYWGQGTQVTVSS | high polyreactivity
2 | QVQHVESGGGLVQAGGSLRLSCAASGFIFPVYAMGWYRQAPGKDRELVAAISSGGITNYADSVKVRFTISRDNAKNTVYLQMNSLKPEDTAVYYCAARDYVRFGLYDYDYWGQGTQVTVSS | low polyreactivity
3 | QVQHVESGGGLVQAGGSLRLSCAASGFIFRWYAMGWYRQAPGKERELVAAITTSGGITYYADSVKGRFTISRDNAKNTVYLQMNSLKPEDTAVYYCNRSPWYGPWHPNSFGSGDYWGQGTQVTVSS | low polyreactivity
4 | QVQHVESGGGLVQAGGSLRLSCAASGFIFRYYTMGLYRQAPGKERELVATISNSGRTYYADSVKGRFTISRDNAKNTVYLQMNSLKPEDTAVYYCNALRASTTALWGGYWGQGTQVTVSS | high polyreactivity
5 | QVQHVESGGGLVQAGGSLRLSCAASGFIFTHYTMGWSRQAPGKESELVAVISSAGSTYYADSVKGRFTISRDNAKNTVYLQMNSLKPEDTAVYYCNKVVRQVHGRGLDYWGQGTQVTVSS | high polyreactivity
6 | QVQHVESGGGLVQAGGSLRLSCAASGFIFTSYAMGWYRQAPGKERELVAVISASDGSTYYADSVKGRFTISRDNAKNTVYLQMNILKPEDTAVYYCNATEYLGGGGIVHVEFGYWGQGTQVTVSS | low polyreactivity
7 | QVQHVESGGGLVQAGGSLRLSCAASGFTFGVNAMGWYRQAPGKERELVAVITSGGNTYYADSVKGRYTISRDNAKNTVYLQMNSLKPEDTAVYYCAADLSYTSYATRYQGDYWGQGTQVTVSS | low polyreactivity
8 | QVQHVESGGGLVQAGGSLRLSCAASGFTIYYYAMGWYRQAPGKERELVAAISTRDGNTYYADSVKGRFTMSRDNAKNTVYLQMNSLKPEDTAVDYCAADYFRYYPYDYWGQGTQVTVSS | low polyreactivity
9 | QVQHVESGGGLVQAGGSLRLSCAASGGIFPTYVMGWYRQAPGKERELVAAIDRNGTSTTYADSVMGRFTISRDNAKNTVYLQMNSLKPEDTAVYYCAAGYNDQTTAYDYWGQGTQVTVSS | low polyreactivity
10 | QVQHVESGGGLVQAGGSLRLSCAASGIIFLRYGMGWYREAPGKERELVPAISSGGSTNYADSVKGRFTISRDNAKNTVYLQLNSLKPEDTAVYYCAALYGRGRPQDSTFLFDYWGPGTQVTVSS | low polyreactivity
11 | QVQHVESGGGLVQAGGSLRLSCAASGIILRSNAMGWYRQAPGKERELVAAINYSGGRTYYADSVKGRFTISRDTAKNTVYLQMNSLKPEDTAVYYCAAGGYPYGLSRVKLYYWGQGTQVTVSS | high polyreactivity
12 | QVQHVESGGGLVQAGGSLRLSCAASGITFGRNTKGWYRQAPGKERELVAAIDSGGNTYADSVKGRFTISRDNAKNTVYLQMNSLKPEDTAVYYCAVDGGEFSSYGYWGQGTQVTVSS | low polyreactivity
13 | QVQHVESGGGLVQAGGSLRLSCAASGITFVDNAMGWYRQAPGKEREWVAVISSSGGSTYYADSVKGRFTISRDNAKNSVYLQMNSLKPEDTAVYYCAARNRFYRRPYDYWGQGTQVTVSS | high polyreactivity
14 | QVQHVESGGGLVQAGGSLRLSCAASGLIYAYYAMGWYRHAPGKERELVAAISRSGVSTYYADSVKGRFTISRDNAKNTVYLQMNSVKPEDTAVYYCAARWRSGFTSGDYWGQGTQVTVSS | low polyreactivity
15 | QVQHVESGGGLVQAGGSLRLSCAASGLTFPYYVMGWYRQAPGKERELVAAIDDGGGSTYYADSVKGRFTISRDNAKNTVYLQMNSLKPVDTAVYYCAAQVDYLAHYGYWGQGTQVTVSS | low polyreactivity
16 | QVQHVESGGGLVQAGGSLRLSCAASGLTFSSYAMGWYRQAPGKERELVAAISLSGGRTYYADSVKGRFTISRDNAKNTVYLQMNSLKPEDTAVYYCAADPYANWCPYPAWYYGAYNYWGQGTQVTVSS | high polyreactivity
17 | QVQHVESGGGLVQAGGSLRLSCAASGLTLYGYTMGWYRQAPGKERELVPTITTGGDSTYYADSVKGRFTISRDNAKNTVYLQMTSLKPEDTAVYYCSAFSYGWDYSYDYWGQGTQVTVSS | low polyreactivity
18 | QVQHVESGGGLVQAGGSLRLSCAASGRIFAFYAMGWYRQAPGKEREFVAAITWSGTNTYYADSVKGRFTISRDNAKNTVYLQMNSLKPEDTAVYYCNARQYYKYGYWGQGTQVTVSS | high polyreactivity
19 | QVQHVESGGGLVQAGGSLRLSCAASGRIFAVNTMGWYRPAPVKERELVAAITSTGRTYYADSVKGRFTISRDNAKNTVYLQMNSLKPEDSAVYYCAADFRYPYAHLPYGYWGQGTQVTVSS | high polyreactivity
20 | QVQHVESGGGLVQAGGSLRLSCAASGRIFEIYAMGWYRPAPGKERYLVAAISWRGVSTYYADSVKGRFTISRDYAKNTVYLQMNSLKPEDTAVFYCNNDVDYFWYVEYDYWGQGTQVTVSS | low polyreactivity
21 | QVQHVESGGGLVQAGGSLRLSCAASGRIFGWYAMGWYRQAPGKERELVAVISWRGRTYYADSVKGRFTISRDNAKNTVYLQMNSLKPEDTAVYYCNARSRSAYDYWGQGTQVTVSS | high polyreactivity
22 | QVQHVESGGGLVQAGGSLRLSCAASGRIFHYYAMGWYRQAPGKERELVAAINKSGGRTYYADSVKGRFTISRDNAKNTVYLQMNSLKPEDTAVYYCNKRSVPGTYYPTPVRYKYDYWGQGTQVTVSS | high polyreactivity

Row | Sequence | polyreactivity (PSR sort gate)
23 | QVQHVESGGGLVQAGGSLRLSCAASGRIFKYNAMGWYRPAPGKERELVAAISYSGGSTYYADSVKGRFTISRDNAKNTVYLQMNSVKPEDTEVYYCAKATTTREPKYGYWGQGTQVTVSS | high polyreactivity
24 | QVQHVESGGGLVQAGGSLRLSCAASGRIFLHNAMGWYRQAPGKERELVAAITGGGSTYYADSVKGRFTISRDNAKNTVYLQMNSLKPEDTAVYYCATLGSLRYYWPGYDYWGQGTQVTVSS | low polyreactivity
25 | QVQHVESGGGLVQAGGSLRLSCAASGRIFSINVMGWYRHAPGKERELVAAISKLGGSTYYADSVKGRFTISRDNAKNTVYLQMNSLKPEDTAVYYCAARRHYTYGNGPSRGGQMDYWGQGTQVTVSS | high polyreactivity
26 | QVQHVESGGGLVQAGGSLRLSCAASGRIFVPYAKGWYRQPPGKERELVADISLRGGTTYYADSVKGRFTISRDNAKNTVYLQMNSLKPEDTAVYYCAARGYVSVWRPYHWFVAGDYWGQGTQVTVSS | high polyreactivity
27 | QVQHVESGGGLVQAGGSLRLSCAASGRIFWGYEMGWYRQAAGKEREFVAALSSGGGRTYYADSVKGRFTISRDNAKNTVYLQMNSLKPDDSGVYYSNAELNWYYYIHLDYWGQGTQVTVSW | low polyreactivity
28 | QVQHVESGGGLVQAGGSLRLSCAASGRIFYCYAMGWYRQAPGKERELVAAISWSGGSTYYADSVKGRFTISRDNAKNTVYLQMNSLKPEDTAVYYCARRYRGGYKYDYWGQGTQVTVSS | high polyreactivity
29 | QVQHVESGGGLVQAGGSLRLSCAASGRIINTYAMGWYRPAPGKERELVAAISWSGGSTYYADSVKGRFTISRDNAKNTVDLQMNSLKPEDTAVYYCNAAYYGYENLSKRGYWGQGTQVTVSS | high polyreactivity
30 | QVQHVESGGGLVQAGGSLRLSCAASGRIIWQNAMGWDRQAPGKERELVAAISSRGGTTYYADSVKGRFTISRDNAKNTVYLQINSLKPEDTAVYYCAKEVWRHYLNLYDYWGQGTQVTVSS | low polyreactivity
31 | QVQHVESGGGLVQAGGSLRLSCAASGRTFFSYAMGLYRHAPGKERELVAAITYSGGRTYYADSVKGRFTISRDNAKNTVYLQMNSLKPEDTAVYYCAATHYREKIDYWGQGTQVTVSS | low polyreactivity
32 | QVQHVESGGGLVQAGGSLRLSCAASGRTFISNAMGWYRQAPGKERELVATINSGGSTNYADSVKGRFTISRDNAKNTVYLQMNSLKPEDTAVYYCARRVRYKHYDYWGQGTQLTVSS | high polyreactivity
33 | QVQHVESGGGLVQAGGSLRLSCAASGRTFNYYAMGWYRQAPGKERELVAAISSSGGRTYYADSVKGRFTISRDNAKNTVYLQMNSLKPEDTAVYYCAADSFYYRPEYDYWGQGTQVTVSS | low polyreactivity
34 | QVQHVESGGGLVQAGGSLRLSCAASGRTFRGYAMGWYRQAPGKERELVASISASGVRTYYADSVKGRFTISRDNAKNTVYLQMNSLKPEDTAVYYCNARHGGWYSVYYYWGQGTQVTVSS | high polyreactivity
35 | QVQHVESGGGLVQAGGSLRLSCAASGRTFRNYAMGWYRQAPGKERELVAAISSGGSTNYADSVKGRFTISRDNAKNTVYLQMNSLKPEDTAVYYCAARQRAYYGPGFDYWGQGTQVTVSS | low polyreactivity
36 | QVQHVESGGGLVQAGGSLRLSCAASGRTFRWYAMGWYRHAPGKERELVAGISRGGGSTTYADSVKGRFTISRDYAKNTVYLQMNSLKPEDTAVYYCAAYWGRTRYYGYDYYYWGQGTQLTVSS | high polyreactivity
37 | QVQHVESGGGLVQAGGSLRLSCAASGRTFVNNAMGWYRQQPGKERELVAAITGSGGSTYYADSVKGRFTISRDNAKNTVYLLMNSLKPEDTAVYYCAKRLVGSRYLFDYWGQGTQVTVSS | low polyreactivity
38 | QVQHVESGGGLVQAGGSLRLSCAASGRTFVTNAKGWYRQAPGKERELVAAISSSGGSTYYADSVKGRFTISRDNAKNTVYLQMNSLKPEDTAVYYCATDRYVTPRLRFDYWGQGTQVTVSS | low polyreactivity
39 | QVQHVESGGGLVQAGGSLRLSCAASGRTLSFYAMGWYRQAPGKERELVAAINYSGGRTSYADSVKGRFTISRDNAKNTVYLQMNSLKPEDTAVYYCAKGVYPWGVYYWGQGTQVTVSS | low polyreactivity
40 | QVQHVESGGGLVQAGGSLRLSCAASGSIFGVNVMGWYRQAPGKERELVAAISSGGGSTYYAESVKGRFTISRDNAKNTVYLQMNSLKPEDTAVYYCAARGQKYGSTYRMDYWGQGTQVTVSS | low polyreactivity
41 | QVQHVESGGGLVQAGGSLRLSCAASGSIFLLYAMGCYSQAPGKERELVAAISTRDGSTYYADSVKGRFTISRDNAKNTVYLQMNSLKPEDTAVYYCATLYSYNYWGQGTQVTVSS | high polyreactivity
42 | QVQHVESGGGLVQAGGSLRLSCAASGSIFTTYAMGWYRQAPGKERELVAAISSGGGTNYADSVKGRFTISRDNAKHTVYLQMNSLKPEDTAVYYCNKRYYRLQLHNAYGATPRRNYWGQGTQVTVSS | low polyreactivity
43 | QVQHVESGGGLVQAGGSLRLSCAASGSIFYYYAMGWYRQAPGKERELVATISSSSGSTYADSVKGRFTISRDNAKNTVYLQMNSLKPEDTAVYYCAKDYWGQGTKVTVSS | low polyreactivity
